The text below walks through data of US20250242020A1 (JUNO THERAPEUTICS, published 2025).

The target in experiment [1] is recombinant human ROR1 extracellular domain with a C-terminal 6xHis tag (human) (UniProt Q01973). Put plainly: SPR (Biacore T200): scFv-mFc captured on anti-mouse IgG chip, ROR1 ECD 6xHis injected, multi-cycle kinetics, 1:1 model.
For experiment [2] the target is unchanged. Nature of the experiment: SPR (Biacore), scFv-mFc captured on an anti-mouse IgG chip, ROR1 ECD 6xHis injected at 183, 61.0, 20.33, 6.78 and 2.26 nM, multi-cycle kinetics, 1:1 Binding model, 25 °C. (In SPR one partner is held on a chip, and binding of the other changes the refractive index at the surface.)
Experiment [3] concerns the target T1, human ROR1 expressed on cells (human, UniProt Q01973 30-937).
T1 construct: also called hROR1; K562-ROR1-TetOn
Put plainly: plasma membrane protein array: immunohistochemistry on cells overexpressing individual human membrane proteins. How it is done: (§1) Off-target binding was assessed based on a plasma membrane protein array. This chip-based platform contains over 4400 groups of cells genetically engineered to overexpress individual human extracellular membrane proteins that together represent over 75% of the human extracellular proteome. The panel also includes over 1000 tethered secreted protein targets. An scFv-Fc (scFv sequence set forth in SEQ ID NO:118) was generated and used for immunohistochemistry (IHC) against the cells in the array. Confirmation screening was performed.

The target in experiment [4] is T2, human ROR2 expressed on cells of the plasma membrane protein array (human, UniProt Q01974 34-943).
T2 construct: whole, on cells; also called receptor tyrosine kinase-like orphan receptor 2
T2 sequence (Q01974 34-943): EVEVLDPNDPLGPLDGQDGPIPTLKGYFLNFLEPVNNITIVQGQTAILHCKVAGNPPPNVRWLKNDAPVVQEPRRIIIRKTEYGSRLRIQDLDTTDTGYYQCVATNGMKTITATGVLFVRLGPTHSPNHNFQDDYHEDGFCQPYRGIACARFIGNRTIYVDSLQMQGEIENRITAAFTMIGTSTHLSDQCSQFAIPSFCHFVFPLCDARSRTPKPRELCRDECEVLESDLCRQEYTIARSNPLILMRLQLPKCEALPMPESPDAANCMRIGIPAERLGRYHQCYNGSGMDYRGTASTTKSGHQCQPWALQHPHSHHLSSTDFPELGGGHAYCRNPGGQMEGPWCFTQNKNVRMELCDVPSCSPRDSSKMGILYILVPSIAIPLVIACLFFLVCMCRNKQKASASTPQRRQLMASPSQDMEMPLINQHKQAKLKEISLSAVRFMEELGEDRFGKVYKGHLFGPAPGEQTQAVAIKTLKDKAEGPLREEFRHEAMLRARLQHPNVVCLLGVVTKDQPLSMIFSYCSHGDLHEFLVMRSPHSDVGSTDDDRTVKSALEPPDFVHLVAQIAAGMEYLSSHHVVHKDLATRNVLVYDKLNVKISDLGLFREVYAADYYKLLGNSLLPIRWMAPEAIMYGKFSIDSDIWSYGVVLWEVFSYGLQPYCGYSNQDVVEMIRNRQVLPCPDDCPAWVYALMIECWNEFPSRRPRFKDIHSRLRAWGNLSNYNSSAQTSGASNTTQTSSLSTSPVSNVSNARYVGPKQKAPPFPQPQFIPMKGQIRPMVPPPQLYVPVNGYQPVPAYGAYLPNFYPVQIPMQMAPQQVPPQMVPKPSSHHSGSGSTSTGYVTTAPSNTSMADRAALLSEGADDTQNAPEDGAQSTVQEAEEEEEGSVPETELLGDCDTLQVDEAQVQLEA
Put plainly: plasma membrane protein array: immunohistochemistry with scFv-Fc on cells overexpressing individual human membrane proteins, with confirmation screening. Here is the method:
as §1

Experiment [5] addresses recombinant human ROR1 extracellular domain with a C-terminal 6xHis tag (human) (UniProt Q01973). Nature of the experiment: SPR (Biacore), scFv-mFc captured on an anti-mouse IgG chip, ROR1 ECD 6xHis injected in a concentration series up to 183 nM, multi-cycle kinetics, 1:1 Binding model, 25 °C.

recombinant human ROR1 extracellular domain with a C-terminal 6xHis tag (human), sequence (Q01973 other isoform, or with tags, fused parts or gaps): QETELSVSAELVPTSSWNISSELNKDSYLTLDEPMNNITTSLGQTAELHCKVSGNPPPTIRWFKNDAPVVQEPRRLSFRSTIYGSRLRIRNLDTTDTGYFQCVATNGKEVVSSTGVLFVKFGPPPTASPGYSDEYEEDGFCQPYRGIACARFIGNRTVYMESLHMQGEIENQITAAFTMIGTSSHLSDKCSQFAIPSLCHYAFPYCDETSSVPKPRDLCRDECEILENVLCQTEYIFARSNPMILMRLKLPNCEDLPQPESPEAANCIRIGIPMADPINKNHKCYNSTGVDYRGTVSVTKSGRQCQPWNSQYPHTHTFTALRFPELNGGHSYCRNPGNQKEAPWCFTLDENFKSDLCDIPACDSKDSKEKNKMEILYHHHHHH
T1 sequence (Q01973 30-937): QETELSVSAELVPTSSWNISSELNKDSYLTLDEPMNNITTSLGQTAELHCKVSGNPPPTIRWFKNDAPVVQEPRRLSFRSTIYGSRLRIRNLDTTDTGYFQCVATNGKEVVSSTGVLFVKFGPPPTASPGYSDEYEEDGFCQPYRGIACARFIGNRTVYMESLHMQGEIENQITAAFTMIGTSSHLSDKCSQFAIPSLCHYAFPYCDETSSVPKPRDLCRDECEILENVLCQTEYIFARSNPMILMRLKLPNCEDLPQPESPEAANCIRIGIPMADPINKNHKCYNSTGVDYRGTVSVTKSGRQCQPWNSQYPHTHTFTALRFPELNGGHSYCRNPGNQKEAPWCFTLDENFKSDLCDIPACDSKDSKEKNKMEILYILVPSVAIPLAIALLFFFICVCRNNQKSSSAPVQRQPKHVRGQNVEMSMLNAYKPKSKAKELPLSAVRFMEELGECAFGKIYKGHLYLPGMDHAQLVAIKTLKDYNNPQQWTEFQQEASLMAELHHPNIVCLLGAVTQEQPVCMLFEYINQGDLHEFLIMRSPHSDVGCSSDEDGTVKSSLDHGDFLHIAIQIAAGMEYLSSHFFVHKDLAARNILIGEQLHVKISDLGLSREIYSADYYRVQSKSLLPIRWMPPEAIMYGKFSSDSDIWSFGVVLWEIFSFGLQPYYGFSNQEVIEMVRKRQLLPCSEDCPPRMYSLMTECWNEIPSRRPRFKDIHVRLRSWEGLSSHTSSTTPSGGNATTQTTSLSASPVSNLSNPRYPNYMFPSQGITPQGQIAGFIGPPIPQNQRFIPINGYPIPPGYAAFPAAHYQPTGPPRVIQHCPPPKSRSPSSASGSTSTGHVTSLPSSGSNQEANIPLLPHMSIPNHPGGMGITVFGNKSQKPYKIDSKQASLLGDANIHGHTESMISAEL

B1: anti-ROR1 scFv ROR1-2 fused to murine IgG2a Fc (scFv-mFc) (Fc fusion, part only; not given: murine IgG2a Fc and junction, not shown: another chain or arm of the molecule; a dimerising Fc or GST)
scFv: QLQLQESGPGLVKPSETLSLTCTVSGGSINSTTSYWAWIRQPPGKGLEWIGTIFYSGKTYNNPSLKSRVTMSVDTSKNHFSLKVNSVTAADTAVYYCARFDYGFHDAFDIWGQGTMVTVSSGGGGSGGGGSGGGGSEIVMTQSPATLSLSPGERATLSCRASQSITSDYLSWYQQKPGQAPRLLIYGASTRATGIPARFSGSGSGTDFTLTISSLQPEDFVVYYCQQDYNLYTFGQGTKLEIKR
For the molecule B1, in experiment [1], the Kd (commonly a measure of binding affinity in units of concentration) came to 95.7 pM; the koff (as a rule, a measure of how fast the partners let go of each other) came out at 3.94e-05 s⁻¹; the association rate constant (kon) – broadly, the rate constant with which the complex forms – turned out to be 412000 M⁻¹ s⁻¹. In addition, in experiment [2], the Kd is 95.7 pM, the koff amounted to 3.94e-05 s⁻¹ and the kon came to 412000 M⁻¹ s⁻¹.

B2: anti-ROR1 scFv ROR1-1 fused to murine IgG2a Fc (scFv-mFc) (Fc fusion, part only; not given: murine IgG2a Fc and junction, not shown: another chain or arm of the molecule; a dimerising Fc or GST)
scFv: QVQLQESGPGLVKPSETLSLTCTVSGGSISNYYWSWIRQPAGKGLEWIGRIYTSGSTNYNPSLKSRVTMSVDTSKNQFSLKLSSLTAADTAIYYCARYYDILTGFFDYWGQGTLVTVSSGGGGSGGGGSGGGGSVIWMTQSPSLLSASTGDSVTISCRMSQDISSYLAWYQQKPGKAPELLIYAASSLQSGVPSRFSGSGSGTDFTLTISSLQSEDFATYYCQQYDSFPPTFGQGTKVEFKR
As for B2, in experiment [1], the Kd came out at 42000 pM, the koff was 0.005 s⁻¹ and the kon worked out at 119000 M⁻¹ s⁻¹. In experiment [2], the Kd was determined as 42000 pM, the koff was 0.005 s⁻¹ and the kon was 119000 M⁻¹ s⁻¹.

B3: scFv-Fc of the binding domain of anti-ROR1 CAR-F (scFv SEQ ID NO:118), used on the plasma membrane protein array (Fc fusion)
chain: QVQLQESGPGLVKPSETLSLTCTVSGGSISNYYWSWIRQPAGKGLEWIGRIYTSGSTNYNPSLKSRVTMSVDTSKNQFSLKLSSLTAADTAIYYCARYYDILTGFFDYWGQGTLVTVSSGGGGSGGGGSGGGGSVIWMTQSPSLLSASTGDSVTISCRMSQDISSYLAWYQQKPGKAPELLIYAASSLQSGVPSRFSGSGSGTDFTLTISSLQSEDFATYYCQQYDSFPPTFGQGTKVEFKR
notes: also called the scFv; not shown: Fc
Turning to B3, the binding result in experiment [3] is given as “binds”; in experiment [4], “no binding”.

B4: anti-ROR1 scFv ROR1-3 fused to murine IgG2a Fc (scFv-mFc) (Fc fusion, part only; not given: murine IgG2a Fc and junction, not shown: another chain or arm of the molecule; a dimerising Fc or GST)
scFv: QVQLVQSGAEVKKPGASVKVSCKASGYTFTSYGISWVRQAPGQGLEWMGWISAYNGNTKYAQKLQGRVTMTTDTSTSTAYMELRSLRSDDTAVYYCARDEDILTGYNYYGMDVWGQGTTVTVSSGGGGSGGGGSGGGGSQLVLTQSPSASASLGASVKLTCTLSSGHSSYAIAWHQQQPEKGPRYLMKLNSDGSHSKGDGIPDRFSGSSSGAERYLTISSLQSEDEADYYCQTWGTGIRVFGGGTKLTVLG
Take B4: in experiment [1], the Kd was 924 pM, the koff is 1.08e-05 s⁻¹ and the kon is 11700 M⁻¹ s⁻¹. Also, in experiment [2], the Kd stood at 924 pM, the koff is 1.08e-05 s⁻¹ and the kon is 11700 M⁻¹ s⁻¹.

B5: anti-ROR1 scFv ROR1-4 fused to murine IgG2a Fc (scFv-mFc) (Fc fusion, part only; not given: murine IgG2a Fc and junction, not shown: another chain or arm of the molecule; a dimerising Fc or GST)
scFv: QVQLLQSGAEVKKPGASVKVSCKASGYTFTSYGISWVRQAPGQGLEWMGWISAYTGNTRYAQKLQGRVTMTTDTSTSTAYMELRSLRSDDTAVYYCAREEGATTDYDYYGMDVWGQGTAVTVSSGGGGSGGGGSGGGGSQLVLTQSPSASASLGASVKLTCTLSSGHSSYAIAWHQQQPEKGPRYLMKLNSDGSHSKGDGIPDRFSGSSSGAERYLTISSLQSEDEADYYCQTWGTGIRVFGGGTKLTVLG
Turning to B5, in experiment [1], the Kd turned out to be 13800 pM, the koff stood at 0.00022 s⁻¹ and the kon is 16000 M⁻¹ s⁻¹. Further, in experiment [2], the Kd is 13800 pM, the koff came out at 0.00022 s⁻¹ and the kon came out at 16000 M⁻¹ s⁻¹.

B6: reference R12 scFv fused to murine IgG2a Fc (scFv-mFc) (Fc fusion, part only; not given: murine IgG2a Fc and junction, not shown: another chain or arm of the molecule; a dimerising Fc or GST)
scFv: QEQLVESGGRLVTPGGSLTLSCKASGFDFSAYYMSWVRQAPGKGLEWIATIYPSSGKTYYATWVNGRFTISSDNAQNTVDLQMNSLTAADRATYFCARDSYADDGALFNIWGPGTLVTISSGGGGSGGGGSGGGGSELVLTQSPSVSAALGSPAKITCTLSSAHKTDTIDWYQQLQGEAPRYLMQVQSDGSYTKRPGVPDRFSGSSSGADRYLIIPSVQADDEADYYCGADYIGGYVFGGGTQLTVTG
For the molecule B6, in experiment [1], the Kd amounted to 942 pM, the koff stood at 0.000579 s⁻¹ and the kon worked out at 614000 M⁻¹ s⁻¹. Further, in experiment [5], the Kd was 942 pM, the koff was determined as 0.000579 s⁻¹ and the kon turned out to be 614000 M⁻¹ s⁻¹.
